We go through one sequence from patent US20110250237A1, “IMMUNOGENIC AMPHIPATHIC PEPTIDE COMPOSITIONS” (priority 2008, published 2011).

A short description of this data set: Differential scanning calorimetry of peptide and particles. It counts as physicochemical. As to conditions: normal saline, peptide 1.11 mg/ml, scanned 20° C. to 130° C. As to the method: Differential scanning calorimetry is used to study the unfolding events associated with the peptide and particles. This technique is used to measure the amount of heat required to increase the temperature of the sample and reference, resulting in peaks at phase transition temperatures at which more heat is required by the samples to be maintained at the same temperature as the reference. In case of proteins the melting temperatures are determined at which half of the protein exists in an unfolded state.
The peptide of SEQ ID NO: 1 is used to form particles at peptide to lipid (POPC) molar ratios of 1:1.75, 1:3 and 1:7, the particles with peptide at concentration of 1.11 mg/ml and lipid at 0.55 mg/ml are used. The peptide alone and lipid alone are used as controls and the samples are scanned from 20° C. to 130° C.

Regarding “DWLKAFYDKVAEKLKEAFLA [peptide SEQ ID NO: 1, amphipathic peptide]”, the phase transition came out at 50 °C.
